Numbering of substitutions follows the chain as printed.

Data on 7 molecules can be found in patent publication US20180066066A1 (University of Texas, published 2018).

Assay [1] has as its target T1, human HER3/ErbB3 extracellular domain (human, UniProt P21860 20-643).
T1 construct: extracellular domain; the range 1-643 of M34309 is printed only for the immunogen; also called Human HER3 ECD; recombinant human HER3
The assay is described as follows: SPR, Biacore T-100; antibody captured by anti-rabbit IgG, recombinant human HER3 as analyte. As to the method: All experiments were performed at 25° C. at a flow rate of 45 μl/min. To prepare a BIAcore assay, an anti-rabbit IgG antibody (50 μg/ml each in acetate buffer, pH 5.0) was immobilized onto a carboxymethyl dextran sensorchip (CM5) using amine coupling procedures as described by the manufacturer. Purified rabbit Mabs to be tested were diluted at a concentration of 5 μg/ml in 0.5% P20, HBS-EP buffer and injected on FC2 to reach 500 to 1000 RU. FC1 was used as the reference cell. Specific signals correspond to the difference of signals obtained on FC2 versus FC1. The analyte (recombinant human HER3, apparent molecular weight 97 kDa on SDS-PAGE gel) was injected during 90 sec at series of concentration dilutions (100, 50, 25, 12.5, 6.25, and 3.13, 1.56 nM) in 0.5% P20, HBS-EP buffer. These concentrations were prepared from stock solution in 0.5% P20, HBS-EP. The dissociation phase of the analyte was monitored over a 30 minute period. Running buffer was also injected under the same conditions as a double reference. After each running cycle, both flow cells were regenerated by injecting 20 to 45 μl of glycine-HCl buffer pH 1.5. Binding KD on HER3 was calculated by koff/kon kinetic rate for each HER3 monoclonal antibody (Table 2).
On the technique in general: SPR reads the build-up and loss of mass on a sensor chip optically.

Assay [2] has as its target T2, human HER3 receptor on cells (human, UniProt P21860 20-1342). The assay is described as follows: cell-based or functional assay.
The target in assay [3] is T2, human HER3 receptor on cells. The assay is described as follows: cell-based or functional assay. The source holds these as a separate data set.
In a further assay the target is T3, Her3/His10 receptor (UniProt P21860 20-643, limits assumed).
T3 construct: extracellular domain; also called HER3 ECD tagged with 10 histidine (His); not shown: tag of 10 histidines
T3 sequence (P21860 20-643 limits assumed): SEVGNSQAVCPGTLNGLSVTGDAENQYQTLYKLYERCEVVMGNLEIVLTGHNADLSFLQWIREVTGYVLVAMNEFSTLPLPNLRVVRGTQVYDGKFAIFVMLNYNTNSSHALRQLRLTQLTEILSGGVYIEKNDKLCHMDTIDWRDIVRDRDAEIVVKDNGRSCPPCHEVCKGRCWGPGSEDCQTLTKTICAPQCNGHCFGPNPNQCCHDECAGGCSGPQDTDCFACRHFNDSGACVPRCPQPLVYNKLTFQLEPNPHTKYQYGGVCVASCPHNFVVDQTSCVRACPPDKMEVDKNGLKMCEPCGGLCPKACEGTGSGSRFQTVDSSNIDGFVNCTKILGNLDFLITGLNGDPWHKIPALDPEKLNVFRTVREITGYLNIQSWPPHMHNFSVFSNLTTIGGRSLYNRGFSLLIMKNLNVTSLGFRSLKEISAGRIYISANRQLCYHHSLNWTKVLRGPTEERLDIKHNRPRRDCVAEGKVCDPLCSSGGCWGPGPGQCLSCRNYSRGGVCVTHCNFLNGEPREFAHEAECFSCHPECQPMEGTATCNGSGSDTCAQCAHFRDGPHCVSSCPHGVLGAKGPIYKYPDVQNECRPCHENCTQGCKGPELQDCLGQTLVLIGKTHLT
The assay is described as follows: AlphaScreen, blocking of biotinylated NRG-1beta binding to Her3/His10 (column head prints EC50, title and text IC50). As to the method: HER3 ligand neuregulin (NRG1) can bind on HER3 extracellular domain and activates HER3 phosphorylation and down-stream signaling. Blocking ligand binding on HER3 by the selected rabbit HER3 monoclonal antibodies was determined using alpha screen format assay. NRG1 (R&D Systems) was biotinylated using a biotinylation kit (Fisher Scientific) and HER3 ECD was tagged with 10 histidine (His). Purified anti-HER3 Mabs were serially diluted two-fold into an assay buffer made from 25 mM Hepes, 100 mM NaCl, 0.5% BSA and 0.05% Tween20 in an opaque/white, half-well area plate (Costar). Rabbit IgG1 was used as a negative control. Biotinylated NRG-lbeta ligand and Her3/His₁₀ receptor were added sequentially at 10 nM concentration to the assay plate containing serially diluted antibodies. The mixture of receptor, ligand and the antibodies was incubated at room temperature with gentle shaking for 90 minutes. AlphaScreen Streptavidin Donor beads and His-Nickel Acceptor beads were added into the assay at a final concentration of 20 μg/ml each. The assay plates were covered with foil and incubated at room temperature with gentle shaking for 1 hour. The plates were read in EnVision plate reader.

Assay [4] has as its target T1, human HER3/ErbB3 extracellular domain. The assay is described as follows: ELISA on human HER3 ECD.

T2 sequence (P21860 20-1342): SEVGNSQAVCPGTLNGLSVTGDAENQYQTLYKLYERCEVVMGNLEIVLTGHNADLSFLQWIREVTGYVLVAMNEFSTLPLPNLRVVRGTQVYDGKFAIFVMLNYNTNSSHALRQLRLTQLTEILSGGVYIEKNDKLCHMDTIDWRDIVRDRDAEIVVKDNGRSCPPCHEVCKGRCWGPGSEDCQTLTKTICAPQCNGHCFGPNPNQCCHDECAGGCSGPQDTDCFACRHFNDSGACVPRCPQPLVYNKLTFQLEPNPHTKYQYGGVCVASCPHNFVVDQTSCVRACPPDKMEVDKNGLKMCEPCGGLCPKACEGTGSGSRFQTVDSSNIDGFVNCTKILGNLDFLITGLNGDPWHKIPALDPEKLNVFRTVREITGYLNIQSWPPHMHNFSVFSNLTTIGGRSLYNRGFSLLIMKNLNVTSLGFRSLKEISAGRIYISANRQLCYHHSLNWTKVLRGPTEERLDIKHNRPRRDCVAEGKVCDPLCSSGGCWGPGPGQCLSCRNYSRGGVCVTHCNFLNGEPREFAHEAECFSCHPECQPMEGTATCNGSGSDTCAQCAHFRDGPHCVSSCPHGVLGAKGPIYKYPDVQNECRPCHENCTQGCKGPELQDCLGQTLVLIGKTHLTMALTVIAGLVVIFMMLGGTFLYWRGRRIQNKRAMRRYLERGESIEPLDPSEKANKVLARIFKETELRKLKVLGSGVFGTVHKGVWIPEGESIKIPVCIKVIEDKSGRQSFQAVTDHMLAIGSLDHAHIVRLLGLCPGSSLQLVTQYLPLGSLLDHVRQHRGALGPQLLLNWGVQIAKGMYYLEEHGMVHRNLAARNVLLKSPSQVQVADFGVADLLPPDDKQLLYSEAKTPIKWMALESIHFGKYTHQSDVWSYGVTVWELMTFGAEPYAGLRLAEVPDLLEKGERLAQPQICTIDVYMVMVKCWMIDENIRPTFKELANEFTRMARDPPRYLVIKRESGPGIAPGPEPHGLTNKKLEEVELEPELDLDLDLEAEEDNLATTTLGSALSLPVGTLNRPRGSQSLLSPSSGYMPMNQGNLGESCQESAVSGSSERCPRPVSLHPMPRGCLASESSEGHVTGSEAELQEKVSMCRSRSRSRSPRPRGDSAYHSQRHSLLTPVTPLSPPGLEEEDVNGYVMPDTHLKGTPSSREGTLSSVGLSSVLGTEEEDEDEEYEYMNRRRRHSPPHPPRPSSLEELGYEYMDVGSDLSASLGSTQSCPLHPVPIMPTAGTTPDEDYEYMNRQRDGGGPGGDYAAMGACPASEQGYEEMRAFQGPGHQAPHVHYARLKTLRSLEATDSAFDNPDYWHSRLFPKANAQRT
T1 sequence (P21860 20-643): as the sequence (P21860 20-643 limits assumed) above

B1: Rab1210 (antibody, V domains shown)
VH: QEQLEESGGGLVQPEGSLTLTCTASGFSFSSSYWICWVRQAPGKGLELIGYIWSGNGATYYASWAKGRFTISKTSSTTVTLQMTSVTATDTATYFCARNYDASGYGIFHLWGPGTLVTVSS
VL: AVVMTQTPASVSAAVGGTVTINCQASQSIVSSYLSWYQQKTGQPPKLLIYSASKLASGVPPRFSGSGSGTQFTLTISGVQCDDAATYYCLYGVDSSNIDNAFGGGTEVVVK
notes: also called Rab1210 monoclonal antibody
As to B1, the Kd in assay [1] amounted to 1000 pM. In assay [2], the “pAKT inhibition, EC50 (nM)” value was 0.4 nM; the “pERK ½ inhibition, EC50 (nM)” value amounted to 1.3 nM; the “pHER3 inhibition, EC50 (nM)” value was 0.7 nM. In addition, the “% Receptor Internalization” value in assay [3] amounted to 62%. The same molecule yielded an IC50 in the assay with Her3/His10 receptor of 100 pM.

B2: HER3-hMab-A13 (antibody, V domains shown)
VH: QVQLVESGGGLVQPGGSLRLSCSASGFSFSSSYWICWVRQAPGKGLEYIGYIWSGNGATYYASWAKGRFTISRDNSKNTVYLQMNSLRAEDTAVYFCARNYDASGYGIFHLWGPGTLVTVSS
VL: DIQMTQTPSSLSASVGDRVTINCQASQSIVSSYLSWYQQKPGKPPKLLIYSASKLASGVPSRFSGSGSGTDFTLTISSLQPEDFATYYCLYGVDSSNIDNAFGGGTKVEIK
As to B2, the EC50 in assay [4] turned out to be 2.5 ng/mL.

B3: HER3-hMab-A15 (antibody, V domains shown)
VH: B2 VH
VL: B2 VL with D1A, I2V
As for B3, the midpoint of the response in assay [4], the EC50, lay at 2.4 ng/mL.

B4: HER3-hMab-A16 (antibody, V domains shown)
VH: B2 VH with Y48L, N75T
VL: B2 VL with D1A, I2V
For B4, the midpoint of the response in assay [4], the EC50, lay at 2.3 ng/mL.

B5: Rab189 (antibody, V domains shown)
VH: QESLEESGGDLVKPEGTLTLTCKASGIGFGYYYYICWVRQAPGKGLEWIACIYTGISDSTYYATWAKGRFAISKTSSTTVTLQMTSLTAADTATYFCARSDPYYTTTYTNTYPTYWNLWGPGTLVTVSS
VL: CAFELTQTPSSVEAAVGGTVTIKCQASQSINNYLAWYQQKTGQPPKLLIYRASTLESGVPSRFKGSGSGTQFTLTISDLECADAATYYCQSYYYSSSNNYYNAFGGGTEVVVK
notes: also called Rab189 monoclonal antibody
For the molecule B5, the Kd in assay [1] is 3600 pM. Further, in assay [2], the “pAKT inhibition, EC50 (nM)” value came out at 3.6 nM; the “pERK ½ inhibition, EC50 (nM)” value worked out at 5.5 nM; the “pHER3 inhibition, EC50 (nM)” value came to 1.7 nM. The “% Receptor Internalization” value in assay [3] was found to be 55%. In addition, the IC50 in the assay with Her3/His10 receptor was 70 pM.

B6: Rab46 (antibody, V domains shown)
VH: EEQLVESGGGLVQPEGSLTLTCTASGFSFSASYYIYWVRQAPGKGLEGIAYITGDDDKRTYYANWAKGRFTISKTSTTVTLQMTSLTAADTATYFCTRNLPDELWGPGTLVTVSS
VL: QAVVTQTPSSVSAAVGGTVTISCQSSESVYSYKNLAWYQQKPGQPPRLLIWQASRLSSGVSSRFSGSGSGTQFTLTISGVQCDDAATYYCQGTYYSSAWDFVFGGGTEVMVE
notes: also called Rab46 monoclonal antibody
Consider B6, for which the Kd in assay [1] was 7300 pM. In assay [2], the “pAKT inhibition, EC50 (nM)” value was 3.8 nM; the “pERK ½ inhibition, EC50 (nM)” value was 6.2 nM; the “pHER3 inhibition, EC50 (nM)” value amounted to 3.5 nM. The “% Receptor Internalization” value in assay [3] stood at 39%. The molecule further came in with an IC50 in the assay with Her3/His10 receptor of 510 pM.

B7: Rab774 (antibody, V domains shown)
VH: QSVEESGGRLVTPGTPLTLTCTVSGIDLSTYAMTWVRRAPGKGLEWLGIINRSSKTYLTDWARGRFTISKTSTTVDLKISSPTTEDTATYFCGRVMSPYSVAGGDLWGPGTLVTVSS
VL: QPVLTQSPSASAALGASAKLTCILSSDLSDYTIDWYKHQQGEAPRYLMQLRSDGSYTKGTGVPDRFSGSSSGADRYLVISSVQADDEADYYCGLPYSVEYVFGGGTQLTVT
notes: also called Rab774 monoclonal antibody
For the molecule B7, the equilibrium dissociation constant (Kd) in assay [1] was 160 pM. Also, in assay [2], the “pAKT inhibition, EC50 (nM)” value worked out at 2.3 nM; the “pERK ½ inhibition, EC50 (nM)” value amounted to 3.8 nM; the “pHER3 inhibition, EC50 (nM)” value came out at 1.8 nM. The “% Receptor Internalization” value in assay [3] turned out to be 60%. This molecule came in with an IC50 in the assay with Her3/His10 receptor of 520 pM.

What is called Kd is the free concentration of one partner at which half of the binding sites on the other are occupied at equilibrium, for simple one-to-one binding. Broadly, the IC50 is the concentration that inhibits the measured activity by half. The term EC50 denotes the midpoint of the concentration-response curve. A lower EC50 goes with higher potency in that assay.
